± gives the standard error. Variants at the floor of the assay were thinned out.
B1: glmS ribozyme (parent)
chain: AUAAAAGCGCCAGAACUACAGAAAUGUAGUUGACGAGGAGGAGGUUUAUCGAAUUUUCGGCGGAUGCCUCCAAA

Key:
Conditions in all cases: with glucosamine-6-phosphate
[1] = variants of: B1; test: self-cleavage kobs at 40 uM GlcN6P; higher = faster cleavage; RNA array
Outline: (§1)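 Glucosamine-6-phosphate (40 μM to 10 mM) in HEPES/KCl/Mg(OAc)2 buffer was flowed over sequenced MiSeq chips, and tiles were imaged over ~14 h. Barcoded ribozyme variants there had been transcribed in situ by E. coli RNA polymerase and were tracked through a hybridised Cy3 probe at 37 °C. One- or two-exponential decay fits to per-tile medians, normalised to baseline and to non-cleaving reference variants, gave kobs. kcat and KM came from weighted Michaelis–Menten fits across concentrations.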

[2] = variants of: B1; test: self-cleavage kobs at 10000 uM GlcN6P; higher = faster cleavage; RNA array
Outline: as §1

[3] = variants of: B1; test: self-cleavage kobs at 160 uM GlcN6P; higher = faster cleavage; RNA array
Outline: as §1

[4] = variants of: B1; test: self-cleavage kobs at 640 uM GlcN6P; higher = faster cleavage; RNA array
Outline: as §1

[5] = variants of: B1; test: self-cleavage kobs at 2500 uM GlcN6P; higher = faster cleavage; RNA array
Outline: as §1

| Variant | self-cleavage kobs at 40 uM GlcN6P [1] [s⁻¹] | self-cleavage kobs at 10000 uM GlcN6P [2] [s⁻¹] | self-cleavage kobs at 160 uM GlcN6P [3] [s⁻¹] | self-cleavage kobs at 640 uM GlcN6P [4] [s⁻¹] | self-cleavage kobs at 2500 uM GlcN6P [5] [s⁻¹] |
| --- | --- | --- | --- | --- | --- |
| AUAAAACCGACAGAACUACAGAAAUGUAGUUGACGAGGAGGAGGUUUAUCGCAUUUUCGGCGGAUGCCUCCAAA | < 1e-05 | < 1e-05 |  |  |  |
| AUAAAAGCCCCAGAACUACAGAAAUGUAGUGGACGAGGAGGAGGUUUAUCGAAUUUUCGGCGGAUGCCUCCAAA | < 1e-05 |  | < 1e-05 | < 1e-05 | < 1e-05 |
| AUAAAAGCGCCAGAACUACAGAAAUGUAGUUGACGAGGAGGAGGUUUGUCGGAUUUUUGGCGGAUGCCUCCAAA | < 1e-05 |  |  |  |  |
| AUAAAAGCGCCAGAACUACAGAAAUGUAGUAGACGGGGAGGAGGUUUAUCGAAUUUUCGGCGGAUGCCUCCAAA | < 1e-05 |  | < 1e-05 | < 1e-05 |  |
| AUAAAAGAGCCAGAACUACAGAAAUGUAGUUGACGAGGAGGAGGAUUAUCGAAUUUUCGGCGGAUGCCUCCAAA | < 1e-05 | < 1e-05 | < 1e-05 | < 1e-05 | < 1e-05 |
| AUAAAAGCGCCAGAACUACAGAAAUGUAGUUGACUAGGAGGAGGGUUAUCGAAUUUUCGGCGGAUGCCUCCAAA | < 1e-05 | < 1e-05 | < 1e-05 | < 1e-05 | < 1e-05 |
| AUAAAAGCGCCAGAACUACAGAAAUGUAGUUGGCGAGGAGGAGGUUUAUCGAAUUGUCGGCGGAUGCCUCCAAA | < 1e-05 | < 1e-05 |  | < 1e-05 |  |
| AUAAAAGCGCCAGAACUACAGAAAUGUAGUUGACGAGGAGGAGGUUUCCCGAAUUUUCGGGGGAUGCCUCCAAA | < 1e-05 | < 1e-05 | < 1e-05 |  | < 1e-05 |
| AUAAAAGCGCCAGACCUACAGAAAUGUAGUUGACGAGGAGGAGGUUUAUCGAUUUUUCGGCAGAUGCCUCCAAA | < 1e-05 | < 1e-05 |  |  | < 1e-05 |
| AUAAAAGCGCCAGAACUACAGAAAUGUAGUUGACAAGGAGGGGGUUUAUCGGAUUUUCGGCGGAUGCCUUCAAA | < 1e-05 |  | < 1e-05 |  | < 1e-05 |
| AUAAAAGCGCGAGAACUACAGAAAUGUAGUUGACGAGGAGGACGUUUAUCGAAUUUUCGGCGGAUGCCUCCAAA | < 1e-05 | < 1e-05 | < 1e-05 | < 1e-05 |  |
| AUAAAAGCGCCAGAACUACAGAAAUGUAGUUGACGAGGAGGAGGCUUAUCGAAUUUUCGGCGGGUGCCUCCAAA | 0.000103 ± 1.8e-05 | 0.00342 ± 0.00055 |  |  | 0.00182 ± 0.00053 |
| AUAAAAGCGCCAGUACUACAGAAAUGUAGUUGACGAGGAGGAGGUUUAUCGAAUUUUCGGAGGAUGCCUCCAAA | < 1e-05 | < 1e-05 |  |  |  |
| AUAAAAGCGCCAGAACUACAGAAAUAUAGUUGACGAGGAGGAGGUUUAUCGAAUUUUCGGCGGAUGUCUCCAAA | 0.000613 ± 0.00023 |  |  |  |  |
| AUAAAAGCGCCAGAACUACAGAAAUGUAGUUGACGGGGAGGAGUUUUAUCGAAUUUUCGGCGGAUGCCUCCAAA | < 1e-05 | < 1e-05 | < 1e-05 | < 1e-05 |  |
| AUAAAAGCGCCAGAACUACAGAAAUGUAGUUGACGAGGAGGACGUGUAUCGAAUUUUCGGCGGAUGCCCCCAAA | < 1e-05 |  |  |  |  |
| AUAAAAGCGCCAAAACUACAGAAAUGUAGUUGACGAGGAGGAGUUUUAUGGAAUUUUCGGCGGAUGCCUCUAAA | < 1e-05 |  |  | < 1e-05 |  |
| AUAAAAGCGCCAGAACUACAGAAAUGUAGUUGACGAGCAGGAGGUUUAUCGAAUUUUCGCCGGAUGCCUUCAAA | < 1e-05 |  |  |  |  |
| AUAAAAGCGCUAGAACUACAGAAAUGUAGUUGACGAGGAGGAGGUUUAUCGAAUUUUCCGCGGAUGCCUCGAAA | < 1e-05 |  |  |  |  |
| AUAAAAGCGCCAGAACUACAGAAAUGUAGUAGACGAGGAGGAGGUUUAUCGAGUUUUCGGAGGAUGCCUCCAAA | < 1e-05 | < 1e-05 |  |  | < 1e-05 |
| AUAAAAGCGCCAGAACUACAGAAAUGUAGUUGACGAGGAGAAGGUCUAUCGAAUUUUCGGCGGAUGCCUCCAAA | < 1e-05 | 4.37e-05 ± 1.2e-05 |  |  |  |
| AUAAAAGCGCCAGAACUACAGAAAUGUAGUUGACGAGUAGGAGUUUUAUCGAAUUUUCGGCGGAUGCCGGCAAA | < 1e-05 |  |  |  |  |
| AUAAAAGCGACAGAACUACAGAAAUGUAGUUGACGAGGAGGAGGUUUAACGAAUUUUCGGUUGAUGCCUCCAAA | < 1e-05 |  |  |  |  |
| AUAAAAGCGCCAGAGCUACAGAAAUGUAGUUGACGAGGAGGAGGUUUAUCGAAUUUUCGGCGGAUGCCUACAAA | 5.87e-05 ± 7.8e-06 | 0.00111 ± 0.00023 | 9.45e-05 ± 1.1e-05 | 0.000211 ± 2.2e-05 | 0.000382 ± 4e-05 |
| AUAAAAGCGCCAGAACUACAGAAAUGUAGUUGACGAGGAGGAGUUUUAGCGAAUUUUCGGCGGAUGCCUCCAAA | < 1e-05 |  | < 1e-05 | < 1e-05 |  |
| AUAAAAGCGCCAGAACUACAGAAAUGUAGUUGACGAGGAGGAGGUUUAUCGAAUUUUCGUCAGAUGCCUCCAAA | < 1e-05 |  | < 1e-05 | < 1e-05 |  |
| AUAAAGGCGCCAGAACUACAGAAAUGUAAUUGAGGAGGAGGAGGUUUAUCGAAUUUUCGGCGGAUGCCUCCAAA | < 1e-05 | < 1e-05 |  | < 1e-05 | < 1e-05 |
| AUAAAAGCGCCAGUACUACAGAAAUGUAGUUGAACAGGAGGAGGAUUAUCGAAUUUUCGGCGGAUGUCUCCAAA | < 1e-05 |  |  |  |  |

Reference: the supplement of paper PMC7125110
